Columns and labels:
Assay in all cases: holdup assay
Set-up in all cases: key: below the threshold = too weak to quantify, mostly under pKd 3.1 to 4
[1] = biological target: T1, LNX2_2, Q8N448
T1 sequence (Q8N448 334-432, limits assumed, looked up): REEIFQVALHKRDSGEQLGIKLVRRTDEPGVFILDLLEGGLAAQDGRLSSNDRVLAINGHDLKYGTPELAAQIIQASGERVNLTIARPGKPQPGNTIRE

[2] = biological target: SNX27, Q96L92
[3] = biological target: PICK1, Q9NRD5
[4] = biological target: T2, NHERF3_3, Q5T2W1
T2 sequence (Q5T2W1 238-333, limits assumed, looked up): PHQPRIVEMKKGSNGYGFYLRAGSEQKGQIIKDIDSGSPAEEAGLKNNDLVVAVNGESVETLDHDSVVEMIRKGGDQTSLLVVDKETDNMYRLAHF

[5] = biological target: GRIP2_4, Q9C0E4
[6] = biological target: HTRA1, Q92743
[7] = biological target: Inadl_1, Q8NI35
[8] = biological target: GOPC, Q9HD26
[9] = biological target: TJP1_2, Q07157
[10] = biological target: T3, MPDZ_10, O75970
T3 sequence (O75970 1624-1722, limits assumed, looked up): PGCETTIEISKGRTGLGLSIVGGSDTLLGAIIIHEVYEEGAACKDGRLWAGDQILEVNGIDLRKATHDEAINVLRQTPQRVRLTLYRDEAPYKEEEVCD

[11] = biological target: T4, LNX2_3, Q8N448
T4 sequence (Q8N448 463-564, limits assumed, looked up): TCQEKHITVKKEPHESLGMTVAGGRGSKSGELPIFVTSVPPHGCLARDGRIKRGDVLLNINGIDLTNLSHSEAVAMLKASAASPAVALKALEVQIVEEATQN

[12] = biological target: T5, DFNB31_2, Q9P202
T5 sequence (Q9P202 274-371, limits assumed, looked up): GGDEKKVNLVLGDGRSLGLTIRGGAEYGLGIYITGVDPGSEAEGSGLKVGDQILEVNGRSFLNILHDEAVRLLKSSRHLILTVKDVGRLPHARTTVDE

[13] = biological target: T6, HTRA3, P83110
T6 sequence (P83110 354-453, limits assumed, looked up): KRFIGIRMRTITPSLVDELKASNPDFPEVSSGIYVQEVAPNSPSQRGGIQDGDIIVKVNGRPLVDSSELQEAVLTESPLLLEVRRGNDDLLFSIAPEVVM

[14] = biological target: T7, APBA2_2, Q99767
T7 sequence (Q99767 654-744, limits assumed, looked up): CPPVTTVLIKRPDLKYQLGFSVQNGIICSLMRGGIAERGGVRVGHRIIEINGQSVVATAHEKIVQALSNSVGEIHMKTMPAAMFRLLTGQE

[15] = biological target: MAST1, Q9Y2H9
[16] = biological target: HTRA2, O43464
[17] = biological target: GORASP2, Q9H8Y8
[18] = biological target: GRID2IP_2, A4D2P6
[19] = biological target: DLG1_3, Q12959
[20] = biological target: GRIP2_5, Q9C0E4
[21] = biological target: Inadl_4, Q8NI35
[22] = biological target: T8, DFNB31_3, Q9P202
T8 sequence (Q9P202 811-907, limits assumed, looked up): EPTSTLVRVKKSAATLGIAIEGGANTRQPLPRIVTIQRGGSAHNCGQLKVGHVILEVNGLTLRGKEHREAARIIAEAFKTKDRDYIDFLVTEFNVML

[23] = biological target: Inadl_9, Q8NI35
[24] = biological target: TJP1_3, Q07157
[25] = biological target: T9, ARHGEF11, O15085
T9 sequence (O15085 42-136, limits assumed, looked up): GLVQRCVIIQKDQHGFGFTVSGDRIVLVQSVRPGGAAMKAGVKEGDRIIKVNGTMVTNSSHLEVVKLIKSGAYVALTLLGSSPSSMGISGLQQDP

[26] = biological target: MAGI1_1, Q96QZ7
[27] = biological target: Inadl_5, Q8NI35
[28] = biological target: IL16_3, Q14005
[29] = biological target: MAGI3_2, Q5TCQ9
[30] = plain residues with an end cap or a label only (N-terminal biotin on a linker: ttds)
[31] = plain residues with an end cap or a label only (N-terminal biotin on a linker: ahx)
[32] = plain residues with an end cap or a label only (N-terminal biotin on a linker: ado-ado)

Sequence of TJP1_2, Q07157 (Q07157 181-274): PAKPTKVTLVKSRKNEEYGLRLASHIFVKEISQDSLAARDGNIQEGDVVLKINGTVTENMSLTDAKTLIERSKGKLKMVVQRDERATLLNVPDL
Sequence of Inadl_9, Q8NI35 (Q8NI35 1530-1615): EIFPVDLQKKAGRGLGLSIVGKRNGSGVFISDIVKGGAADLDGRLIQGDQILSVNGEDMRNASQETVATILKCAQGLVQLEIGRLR
Sequence of GRIP2_5, Q9C0E4 (Q9C0E4 544-642): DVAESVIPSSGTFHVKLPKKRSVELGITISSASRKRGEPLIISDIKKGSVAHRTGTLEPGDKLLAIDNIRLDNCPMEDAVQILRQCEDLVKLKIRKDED
Sequence of DLG1_3, Q12959 (Q12959 457-571): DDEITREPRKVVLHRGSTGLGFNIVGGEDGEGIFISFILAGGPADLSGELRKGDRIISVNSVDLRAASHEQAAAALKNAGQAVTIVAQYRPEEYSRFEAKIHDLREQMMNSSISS
Sequence of PICK1, Q9NRD5 (Q9NRD5 17-115): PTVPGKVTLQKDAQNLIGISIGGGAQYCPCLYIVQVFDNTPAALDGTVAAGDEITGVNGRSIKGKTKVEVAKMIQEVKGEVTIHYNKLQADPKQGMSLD
Sequence of GRID2IP_2, A4D2P6 (A4D2P6 272-370): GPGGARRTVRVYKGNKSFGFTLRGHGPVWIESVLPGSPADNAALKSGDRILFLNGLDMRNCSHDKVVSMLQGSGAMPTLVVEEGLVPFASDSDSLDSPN
Sequence of Inadl_1, Q8NI35 (Q8NI35 113-229): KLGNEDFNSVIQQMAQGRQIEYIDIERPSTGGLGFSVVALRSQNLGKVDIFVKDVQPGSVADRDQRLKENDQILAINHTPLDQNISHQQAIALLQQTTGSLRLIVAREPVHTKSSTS
Sequence of Inadl_5, Q8NI35 (Q8NI35 673-780): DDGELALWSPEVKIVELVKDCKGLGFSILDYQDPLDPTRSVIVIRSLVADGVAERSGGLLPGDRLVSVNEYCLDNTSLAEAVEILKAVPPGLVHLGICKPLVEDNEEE
Sequence of MAGI1_1, Q96QZ7 (Q96QZ7 1-106): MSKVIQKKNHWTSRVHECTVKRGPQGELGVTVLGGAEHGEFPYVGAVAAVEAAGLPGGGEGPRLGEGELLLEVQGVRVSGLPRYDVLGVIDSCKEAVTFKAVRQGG
Sequence of HTRA1, Q92743 (Q92743 360-477): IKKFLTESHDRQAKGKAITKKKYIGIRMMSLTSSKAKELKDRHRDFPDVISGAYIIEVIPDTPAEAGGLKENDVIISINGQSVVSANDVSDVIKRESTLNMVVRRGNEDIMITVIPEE
Sequence of GRIP2_4, Q9C0E4 (Q9C0E4 446-548): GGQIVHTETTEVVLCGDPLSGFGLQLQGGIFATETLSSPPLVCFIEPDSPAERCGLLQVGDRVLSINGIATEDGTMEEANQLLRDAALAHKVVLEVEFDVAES
Sequence of TJP1_3, Q07157 (Q07157 416-512): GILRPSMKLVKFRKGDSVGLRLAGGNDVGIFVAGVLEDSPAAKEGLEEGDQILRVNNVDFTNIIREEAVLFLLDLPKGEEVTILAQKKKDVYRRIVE
Sequence of IL16_3, Q14005 (Q14005 1107-1207): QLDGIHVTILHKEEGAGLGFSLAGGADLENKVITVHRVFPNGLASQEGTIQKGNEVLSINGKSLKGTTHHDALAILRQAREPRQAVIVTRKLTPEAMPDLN
Sequence of HTRA2, O43464 (O43464 355-458): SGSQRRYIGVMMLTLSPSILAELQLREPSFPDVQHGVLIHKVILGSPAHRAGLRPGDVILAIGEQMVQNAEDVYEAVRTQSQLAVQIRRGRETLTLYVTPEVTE
Sequence of MAGI3_2, Q5TCQ9 (Q5TCQ9 398-503): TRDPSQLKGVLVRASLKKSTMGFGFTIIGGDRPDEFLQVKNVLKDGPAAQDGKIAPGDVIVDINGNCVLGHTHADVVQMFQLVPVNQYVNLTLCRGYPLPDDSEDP
Sequence of Inadl_4, Q8NI35 (Q8NI35 547-651): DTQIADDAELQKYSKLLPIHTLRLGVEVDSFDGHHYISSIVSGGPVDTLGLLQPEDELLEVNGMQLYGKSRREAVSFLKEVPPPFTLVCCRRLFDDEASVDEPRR
Sequence of MAST1, Q9Y2H9 (Q9Y2H9 962-1065): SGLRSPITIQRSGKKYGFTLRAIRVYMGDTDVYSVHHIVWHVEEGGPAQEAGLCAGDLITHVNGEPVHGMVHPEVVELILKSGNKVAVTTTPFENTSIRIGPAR

SRRPRTETQV [HPV31-E6, P17386]
pKd [1, 30]: below the threshold
pKd [2, 30]: 4.64
pKd [3, 30]: below the threshold
pKd [4, 30]: below the threshold
pKd [5, 30]: below the threshold
pKd [6, 30]: below the threshold
pKd [7, 30]: below the threshold
pKd [8, 30]: below the threshold
pKd [9, 30]: below the threshold
pKd [10, 30]: below the threshold
pKd [11, 30]: below the threshold
pKd [12, 30]: below the threshold
pKd [13, 30]: below the threshold
pKd [14, 30]: below the threshold
pKd [15, 30]: 4.42
pKd [16, 30]: below the threshold
pKd [17, 30]: 3.65
pKd [18, 30]: below the threshold
pKd [19, 30]: 4.6
pKd [20, 30]: below the threshold
pKd [21, 30]: below the threshold
pKd [22, 30]: below the threshold
pKd [23, 30]: below the threshold
pKd [24, 30]: below the threshold
pKd [25, 30]: 3.58
pKd [26, 30]: below the threshold
pKd [27, 30]: below the threshold
pKd [28, 30]: below the threshold
pKd [29, 30]: 5.87

TIVSWPGTFL [LNX1, Q8TBB1]
pKd [1, 31]: below the threshold
pKd [2, 31]: 3.79
pKd [3, 31]: below the threshold
pKd [4, 31]: below the threshold
pKd [5, 31]: below the threshold
pKd [6, 31]: 4.61
pKd [7, 31]: below the threshold
pKd [8, 31]: 3.75
pKd [9, 31]: below the threshold
pKd [10, 31]: 3.6
pKd [11, 31]: below the threshold
pKd [12, 31]: below the threshold
pKd [13, 31]: 3.62
pKd [14, 31]: below the threshold
pKd [15, 31]: 4.25
pKd [16, 31]: 3.94
pKd [17, 31]: below the threshold
pKd [18, 31]: 4.16
pKd [19, 31]: below the threshold
pKd [20, 31]: below the threshold
pKd [21, 31]: below the threshold
pKd [22, 31]: below the threshold
pKd [23, 31]: below the threshold
pKd [24, 31]: below the threshold
pKd [25, 31]: below the threshold
pKd [26, 31]: below the threshold
pKd [27, 31]: below the threshold
pKd [28, 31]: below the threshold
pKd [29, 31]: below the threshold

GKKSVKHSKI [ACOT6, Q3I5F7]
pKd [1, 32]: below the threshold
pKd [2, 32]: below the threshold
pKd [3, 32]: 3.99
pKd [4, 32]: below the threshold
pKd [5, 32]: below the threshold
pKd [6, 32]: below the threshold
pKd [7, 32]: below the threshold
pKd [8, 32]: 3.68
pKd [9, 32]: below the threshold
pKd [10, 32]: below the threshold
pKd [11, 32]: below the threshold
pKd [12, 32]: 3.81
pKd [13, 32]: below the threshold
pKd [14, 32]: below the threshold
pKd [15, 32]: below the threshold
pKd [16, 32]: below the threshold
pKd [17, 32]: below the threshold
pKd [18, 32]: 3.83
pKd [19, 32]: below the threshold
pKd [20, 32]: below the threshold
pKd [21, 32]: below the threshold
pKd [22, 32]: 3.85
pKd [23, 32]: below the threshold
pKd [24, 32]: below the threshold
pKd [25, 32]: below the threshold
pKd [26, 32]: below the threshold
pKd [27, 32]: below the threshold
pKd [28, 32]: below the threshold
pKd [29, 32]: 4.07

NQLAWFDTDL [CTNNB1, P35222]
pKd [1, 30]: below the threshold
pKd [2, 30]: 4.91
pKd [3, 30]: below the threshold
pKd [4, 30]: below the threshold
pKd [5, 30]: below the threshold
pKd [6, 30]: below the threshold
pKd [7, 30]: below the threshold
pKd [8, 30]: below the threshold
pKd [9, 30]: below the threshold
pKd [10, 30]: below the threshold
pKd [11, 30]: below the threshold
pKd [12, 30]: below the threshold
pKd [13, 30]: below the threshold
pKd [14, 30]: below the threshold
pKd [15, 30]: 4.83
pKd [16, 30]: below the threshold
pKd [17, 30]: below the threshold
pKd [18, 30]: below the threshold
pKd [19, 30]: below the threshold
pKd [20, 30]: below the threshold
pKd [21, 30]: below the threshold
pKd [22, 30]: below the threshold
pKd [23, 30]: below the threshold
pKd [24, 30]: below the threshold
pKd [25, 30]: 3.77
pKd [26, 30]: below the threshold
pKd [27, 30]: below the threshold
pKd [28, 30]: below the threshold
pKd [29, 30]: below the threshold

GIFPTLTSPL [SHROOM3, Q8TF72]
pKd [1, 31]: below the threshold
pKd [2, 31]: 3.91
pKd [3, 31]: below the threshold
pKd [4, 31]: below the threshold
pKd [5, 31]: below the threshold
pKd [6, 31]: below the threshold
pKd [7, 31]: below the threshold
pKd [8, 31]: below the threshold
pKd [9, 31]: below the threshold
pKd [10, 31]: 3.77
pKd [11, 31]: below the threshold
pKd [12, 31]: below the threshold
pKd [13, 31]: below the threshold
pKd [14, 31]: below the threshold
pKd [15, 31]: 3.5
pKd [16, 31]: below the threshold
pKd [17, 31]: below the threshold
pKd [18, 31]: below the threshold
pKd [19, 31]: below the threshold
pKd [20, 31]: below the threshold
pKd [21, 31]: below the threshold
pKd [22, 31]: below the threshold
pKd [23, 31]: below the threshold
pKd [24, 31]: below the threshold
pKd [25, 31]: 3.49
pKd [26, 31]: below the threshold
pKd [27, 31]: below the threshold
pKd [28, 31]: below the threshold
pKd [29, 31]: below the threshold
